Source: the supplement of paper PMC9170038

Tested on: MS2 coat protein
Assay: apparent KD of MS2 coat protein; designed switch direction (-1 OFF switch, 1 ON switch): -1; higher = weaker reporter binding
Method in brief: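 Stalled E. coli RNA polymerase transcribed designed RNA switches on Illumina chips, which were then titrated with SNAP-549-labelled MS2 coat protein, doubling from 0.7 or 1.5 nM to 3 µM. Steps lasted from 0.8–1.5 h at the lowest concentration to 10–20 min at the highest. The apparent KD is each design's median over clusters of curve-fitted normalised fluorescence.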

[1] = input ligand: microRNA oligo, concentration not stated
[2] = Eterna round: R95, input ligand: microRNA oligo, concentration not stated
[3] = Eterna round: R95, input ligand: FMN 200 uM
[4] = Eterna round: R95, input ligand: none

Sequence: CUCAUGCCUGAGGAUAUGCUGUACAAAAGUACUGCAGAAGGCAGAACAUGAGGAUCACCCAUGUGGCGAAAGCC [Omei Ex G1] (Eterna round: R97, puzzle: Exclusion 6)
- apparent KD of MS2 coat protein (input ligand: FMN 200 uM): 549 nM
- apparent KD of MS2 coat protein (input ligand: none): 106 nM

Sequence: CUCAUGUGAGGAUAUCACCCAAGAGUGAGCAAUCACUAUCAUGAGAAGGCACAUGAGGAUCACCCAUGUUAAAA [Xesoer] (Eterna round: R97, puzzle: Exclusion 4)
- apparent KD of MS2 coat protein (input ligand: FMN 200 uM): 11.5 nM
- apparent KD of MS2 coat protein (input ligand: none): 57.7 nM

Sequence: CUCAUGUGAGGAUAUCAGUAGUAAAAAAAUAAAAUUACUACUGAGAAGGCACAUGAGGAUCACCCAUGUGCCAA [EX4 337: Super Stable 37] (Eterna round: R96, puzzle: Exclusion 4)
- apparent KD of MS2 coat protein [1]: 12.8 nM

Sequence: CUCAUGUGAGGAUAUGAGUUAGGGCGAGAGCCCUAUGAAAAUUAGAAGGCACAUGAGGAUCACCCAUGUGAGAA [Rerige] (Eterna round: R97, puzzle: Exclusion 4)
- apparent KD of MS2 coat protein (input ligand: FMN 200 uM): 211 nM
- apparent KD of MS2 coat protein (input ligand: none): 169 nM

Sequence: CUCAUGUGAGGAUAUGUGAUCUGCCUUCUAUGUAGAUGAUCACAGAAGGCACAUGAGGAUCACCCAUGUAGAUC [Ex4 - 3 - 27] (puzzle: Exclusion 4)
- apparent KD of MS2 coat protein [2]: 69.2 nM

Sequence: CUCCAGCAAGGAUAUACAUAGUGACGUCUGUUUAAUCUUAAACAUGAGGAUCACCCAUGUAGAAGGUGCGUCAC [Biqugeza] (Eterna round: R97, puzzle: Exclusion 2)
- apparent KD of MS2 coat protein (input ligand: FMN 200 uM): 19.4 nM
- apparent KD of MS2 coat protein (input ligand: none): 17.1 nM

Sequence: CUCCAGCAAGGAUAUACGUGUCUAAGAAGAGGUCUUAUGCUACAUGAGGAUCACCCAUGUAGAAGGUGCGGACA [EX2 C.2] (Eterna round: R97, puzzle: Exclusion 2)
- apparent KD of MS2 coat protein (input ligand: FMN 200 uM): 14.4 nM
- apparent KD of MS2 coat protein (input ligand: none): 15.4 nM

Sequence: CUCCCUCGGGUUAGGAUAUGCUACUGGCUUCAGAUGCAGAAGGAACAUGAGGAUCACCCAUGUACCAAAUAAAA [BmEX4 B.15] (Eterna round: R97, puzzle: Brourd's mod of Exclusion 4)
- apparent KD of MS2 coat protein (input ligand: FMN 200 uM): 35 nM
- apparent KD of MS2 coat protein (input ligand: none): 14.5 nM

Sequence: CUCCUCAUGGCGCCUAAACACAUGAGGAUCACCCAUGUACAGGCCUUUUGCCGUCUUAUAAUAAAACCGAGGAUGCG [Lainxezabe] (puzzle: Sensor v3, turn-off variant 1)
- apparent KD of MS2 coat protein [3]: 29.6 nM
- apparent KD of MS2 coat protein [2]: 223 nM
- apparent KD of MS2 coat protein [4]: 26.8 nM

Sequence: CUCCUGUGAGGAUAUGUAGGCCGCCCGGUCAGCCGAGCGAGACAGAAGGCACAUGAGGAUCACCCAUGUGACUC [EX4 B.13] (Eterna round: R97, puzzle: Exclusion 4)
- apparent KD of MS2 coat protein (input ligand: FMN 200 uM): 42.2 nM
- apparent KD of MS2 coat protein (input ligand: none): 16.6 nM

Sequence: CUCGUGUAAGGAUAUGUACCGACACCGCUAAAGCGGCUCCGACAGAAGGUACAUGAGGAUCACCCAUGUACUGC [EX4 B.2] (Eterna round: R97, puzzle: Exclusion 4)
- apparent KD of MS2 coat protein (input ligand: FMN 200 uM): 25.9 nM
- apparent KD of MS2 coat protein (input ligand: none): 20.3 nM

Sequence: CUCUUGGCAGGAUAUGCUUUUUUAGACAUGAGGAUCACCCAUGUGAUGAAUAUUGGGUUCGCAGAAGGGCCUGAAU [JR_E5_Sub040] (puzzle: Exclusion 5)
- apparent KD of MS2 coat protein [2]: 48.4 nM

Sequence: CUCUUGUUAGGAUAUCAAACUGGCGGCGGAGCCGGCAGUAGUGAGAAGGGACAUGAGGAUCACCCAUGUAAGAA [Veeder] (puzzle: Exclusion 4)
- apparent KD of MS2 coat protein [2]: 55.1 nM

Sequence: CUGAACCCGGUAGGAUAUAUUGUGGGCAGGCGUGGAACGACAUGAGGAUCACCCAUGUAAUUUAGGUAGAAGGGCCGAGAGAUU [Excl-NG2-LRO13] (Eterna round: R96, puzzle: Exclusion NG 2)
- apparent KD of MS2 coat protein (input ligand: FMN 200 uM): 22.9 nM
- apparent KD of MS2 coat protein [1]: 21.7 nM
- apparent KD of MS2 coat protein (input ligand: none): 37.3 nM

Sequence: CUGACGGCAGGAUAUACAUGAGGAUCACCCAUGUAAAUUUUUCGUUUAACUUGAAUGUGUAGAAGGGCCCAACC [Ex3 #79] (Eterna round: R97, puzzle: Exclusion 3)
- apparent KD of MS2 coat protein (input ligand: FMN 200 uM): 19.6 nM
- apparent KD of MS2 coat protein (input ligand: none): 21.5 nM

Sequence: CUGAGCAGACGGAGAUCCAACAUGAGGAUCACCCAUGUCUCAAAAGCUUUUUGCUCAUCUUAUCCUCCUCUGUUCUC [Edcesobi] (puzzle: Sensor v3, turn-off variant 1)
- apparent KD of MS2 coat protein [3]: 20.5 nM
- apparent KD of MS2 coat protein [2]: 336 nM
- apparent KD of MS2 coat protein [4]: 17.9 nM

Sequence: CUGAGCAGACGGAGAUCCAACAUGAGGAUCACCCAUGUCUCAAAAGCUUUUUGCUUGUCUUAUUCUCCUCUGUUCAC [Enradibe] (puzzle: Sensor v3, turn-off variant 1)
- apparent KD of MS2 coat protein [3]: 13.2 nM
- apparent KD of MS2 coat protein [2]: 31.6 nM
- apparent KD of MS2 coat protein [4]: 11.2 nM

Sequence: CUGAGCUGAGGAUAUACAUGAGGAUCACCCAUGUGUUCCAGCUUGCGUACAGGCAGAUGUAGAAGGCAGUUCGG [JL-ex3-3.35 Brourd mod] (puzzle: Exclusion 3)
- apparent KD of MS2 coat protein [2]: 38.9 nM

Sequence: CUGAGGUAGCGGUCCUAUGACAUGAGGAUCACCCAUGUACCUUGCUUCGAGCUUUUUGCUCGUCUUAUGAUUCUCAG [Mat - Sensor v3 - turn-off var 1 - JL Mod - D32] (puzzle: Sensor v3, turn-off variant 1)
- apparent KD of MS2 coat protein [3]: 114 nM
- apparent KD of MS2 coat protein [2]: 405 nM
- apparent KD of MS2 coat protein [4]: 162 nM

Sequence: CUGAGUAGUCAGGAUAUGUGGUACAAAAGUACUGCAGAAGGGAUUACAUGAGGAUCACCCAUGUUAUCUUCAUG [Omei Ex6 B19] (Eterna round: R97, puzzle: Exclusion 6)
- apparent KD of MS2 coat protein (input ligand: FMN 200 uM): 368 nM
- apparent KD of MS2 coat protein (input ligand: none): 144 nM

Sequence: CUGAGUCUAGGAUAUACAUGAGGAUCACCCAUGUAAAGUAGCUUGCGUACAGGCAGAUGUAGAAGGAGAUUCGG [Mod of JL 10 - Jieux - Exclusion 3] (Eterna round: R97, puzzle: Exclusion 3)
- apparent KD of MS2 coat protein (input ligand: FMN 200 uM): 33.2 nM
- apparent KD of MS2 coat protein (input ligand: none): 24.6 nM

Sequence: CUGAUGUCAGGAUAUCAGAAAAGGCACAAGAACGCGCCAAAUGAGAAGGGACAUGAGGAUCACCCAUGUAAAAC [Reena] (puzzle: Exclusion 4)
- apparent KD of MS2 coat protein [3]: 87.1 nM
- apparent KD of MS2 coat protein [2]: 28.2 nM
- apparent KD of MS2 coat protein [4]: 27.9 nM

Sequence: CUGAUGUCAGGAUAUCAGAAAAGGUGCGAGGACGCACCAAAUGAGAAGGGACAUGAGGAUCACCCAUGUAAAAC [Inbeenen] (puzzle: Exclusion 4)
- apparent KD of MS2 coat protein [2]: 19.2 nM

Sequence: CUGAUGUGAGGAUAUCGGGCUACGGCCAGGCCGCUAGCAUUCGAGAAGGCACAUGAGGAUCACCCAUGUGAGAA [Laquzara] (Eterna round: R96, puzzle: Exclusion 4)
- apparent KD of MS2 coat protein (input ligand: FMN 200 uM): 230 nM
- apparent KD of MS2 coat protein [1]: 112 nM
- apparent KD of MS2 coat protein (input ligand: none): 153 nM

Sequence: CUGAUGUGAGGAUAUCUAAAAGAAACUGGGCAAAAUACCAGAGAGAAGGCACAUGAGGAUCACCCAUGUAACGA [Rabigeri] (puzzle: Exclusion 4)
- apparent KD of MS2 coat protein [2]: 19.5 nM

Sequence: CUGAUGUUAGGAUAUCAGGCACCCGCCACUGGCAGGGCGCAUGAGAAGGGACAUGAGGAUCACCCAUGUAGUAA [Gelaoren] (puzzle: Exclusion 4)
- apparent KD of MS2 coat protein [2]: 21.3 nM

Sequence: CUGCUCCGUGUAGGAUAUGCGCGCACCACCCGCGCAGAAGGACAUGAGGAUCACCCAUGUAUGUUAUUAUCACGUGUGGCGCGC [Design 38] (Eterna round: R96, puzzle: Exclusion NG 1)
- apparent KD of MS2 coat protein (input ligand: FMN 200 uM): 12.6 nM
- apparent KD of MS2 coat protein [1]: 11.1 nM
- apparent KD of MS2 coat protein (input ligand: none): 15.9 nM

Sequence: CUGCUGGAGUUUCGCUUUGGUCGUACAUGAGGAUCACCCAUGUAGGAUAUGGUAAAAUUCGCCUGCUAGAAGGAUAGAGUGGUC [salish99_ExNG3_r04_620] (Eterna round: R96, puzzle: Exclusion NG 3)
- apparent KD of MS2 coat protein (input ligand: FMN 200 uM): 48.1 nM
- apparent KD of MS2 coat protein [1]: 38.6 nM
- apparent KD of MS2 coat protein (input ligand: none): 42.3 nM

Sequence: CUGCUGGAGUUUUGCUUUGGUCGUACAUGAGGAUCACCCAUGUAGGAUAUGGUAAAAUUCGCCUGCUAGAAGGAUAGAGUGGUC [salish99_ExNG3_r04_621] (Eterna round: R96, puzzle: Exclusion NG 3)
- apparent KD of MS2 coat protein (input ligand: FMN 200 uM): 35.5 nM
- apparent KD of MS2 coat protein [1]: 23 nM
- apparent KD of MS2 coat protein (input ligand: none): 32.4 nM

Sequence: CUGGGCCGAGGAUAUAUUAUGUGAAACAUGAGGAUCACCCAUGUAAUAUGAUGGAUGUAAAUAGAAGGCGGUCUAG [Mat - Exclusion 5 - JL mod - D27] (puzzle: Exclusion 5)
- apparent KD of MS2 coat protein [3]: 28.2 nM
- apparent KD of MS2 coat protein [2]: 17.4 nM
- apparent KD of MS2 coat protein [4]: 21.3 nM

Sequence: CUGGUCCGAGGAUAUAUGAUGUGAAACAUGAGGAUCACCCAUGUAAUAUUAUGGAUGAAAAUAGAAGGCGGACUAG [Mat - Exclusion 5 - JL mod - D37] (puzzle: Exclusion 5)
- apparent KD of MS2 coat protein [3]: 52.6 nM
- apparent KD of MS2 coat protein [2]: 66.1 nM
- apparent KD of MS2 coat protein [4]: 62.7 nM

Sequence: CUGGUCCGAGGAUAUAUUAUGUGAAACAUGAGGAUCACCCAUGUUAUAUGAUGGAUGUAAAUAGAAGGCGGACUAG [JL-ex5-3.14] (puzzle: Exclusion 5)
- apparent KD of MS2 coat protein [3]: 27.6 nM
- apparent KD of MS2 coat protein [2]: 36.3 nM
- apparent KD of MS2 coat protein [4]: 40.3 nM

Sequence: CUGGUCCGAGGAUAUAUUAUGUGAUACAUGAGGAUCACCCAUGUUAUAUGAUGGAUGUUAGUAGAAGGCGGACUAC [salish99_ex5_r3_001] (puzzle: Exclusion 5)
- apparent KD of MS2 coat protein [3]: 102 nM
- apparent KD of MS2 coat protein [2]: 69.9 nM
- apparent KD of MS2 coat protein [4]: 101 nM

Sequence: CUGGUGUGAGGAUAUCAGGACACGUAAGCGGGCGUGUCAAAUGAGAAGGCACAUGAGGAUCACCCAUGUGGGAC [Atbeceesxe] (puzzle: Exclusion 4)
- apparent KD of MS2 coat protein [2]: 27.8 nM

Sequence: CUGUACAUAGGAUAUAGUUGCUUUUACAUGAGGAUCACCCAUGUCACUCCUCUCUCUCUUCUAGAAGGAUGUUUCU [JR_E5_Sub009] (puzzle: Exclusion 5)
- apparent KD of MS2 coat protein [2]: 68.4 nM

Sequence: CUGUACAUAGGAUAUAGUUGUUUUUACAUGAGGAUCACCCAUGUUACUCCUCUCUCUCUUCUAGAAGGAUGUUUCU [JR_E5_Sub008] (puzzle: Exclusion 5)
- apparent KD of MS2 coat protein [2]: 63.8 nM

Sequence: CUGUACUGAGGAUAUACAUGAGGAUCACCCAUGUGCUCCAGCUAGGAAACUAGCAAAAGUAGAAGGCAGUACAG [Mat - Exclusion 3 - Eli Mod - D60] (Eterna round: R97, puzzle: Exclusion 3)
- apparent KD of MS2 coat protein (input ligand: FMN 200 uM): 620 nM
- apparent KD of MS2 coat protein (input ligand: none): 62.5 nM
